Results taken from PMC4259888.

How the values were obtained:
[1] = biological target: HIV-1 CA hexamers (A14C/E45C/W184A/M185A) (HIV-1); experiment: SEC; size-exclusion chromatographic profiles of purified individual CA hexamers, pentamers and monomers
[2] = biological target: HIV-1 CA pentamers (A21C/E22C/W184A/M185A) (HIV-1); experiment: as above

Substance	stoichiometry N [1]	stoichiometry N [2]
HIV-1 CA hexamers (A14C/E45C/W184A/M185A) (natural protein)	6	–
HIV-1 CA pentamers (A21C/E22C/W184A/M185A) (natural protein)	–	5
